In PMC10377887, “Individual Contributions of Amido Acid Residues Tyr122, Ile168, and Asp173 to the Activity and Substrate Specificity of Human DNA Dioxygenase ABH2”:

T1: ABH2 Y122A (human, UniProt Q6NS38 1-261, Y122A)
T1 sequence: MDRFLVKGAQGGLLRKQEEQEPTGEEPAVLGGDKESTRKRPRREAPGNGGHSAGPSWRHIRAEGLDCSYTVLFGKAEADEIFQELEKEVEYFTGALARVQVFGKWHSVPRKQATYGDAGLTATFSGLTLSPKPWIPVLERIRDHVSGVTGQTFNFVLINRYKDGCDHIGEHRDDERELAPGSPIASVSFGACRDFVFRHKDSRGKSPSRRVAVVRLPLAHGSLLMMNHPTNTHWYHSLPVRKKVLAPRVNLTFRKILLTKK

T2: ABH2 I168A (human, UniProt Q6NS38 1-261, I168A)
T2 sequence: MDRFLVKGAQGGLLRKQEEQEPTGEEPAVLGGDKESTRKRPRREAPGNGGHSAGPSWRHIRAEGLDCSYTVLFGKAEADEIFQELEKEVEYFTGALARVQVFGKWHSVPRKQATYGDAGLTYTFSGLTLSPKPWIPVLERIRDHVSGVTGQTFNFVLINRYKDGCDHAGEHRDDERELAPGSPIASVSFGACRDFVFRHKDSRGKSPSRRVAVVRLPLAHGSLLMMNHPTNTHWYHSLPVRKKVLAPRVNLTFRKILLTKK

T3: ABH2 D173A (human, UniProt Q6NS38 1-261, D173A)
T3 sequence: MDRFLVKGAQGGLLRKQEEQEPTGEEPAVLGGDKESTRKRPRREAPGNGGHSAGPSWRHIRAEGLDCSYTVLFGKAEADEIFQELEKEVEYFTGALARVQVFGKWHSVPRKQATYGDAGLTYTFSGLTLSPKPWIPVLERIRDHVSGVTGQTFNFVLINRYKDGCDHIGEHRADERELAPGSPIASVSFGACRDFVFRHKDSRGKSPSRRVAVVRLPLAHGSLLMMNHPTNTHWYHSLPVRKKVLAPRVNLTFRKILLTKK


Experiments:
Assay in all cases: EMSA; 0.5 mM αKG, 10 mM Mg2+, 2 mM ascorbate; EMSA: 50 mM Tris-HCl pH 8.0, 50 mM KCl, 10 mM MgCl2, 0.5 mM αKG, 2 mM Na ascorbate; 1.2 µM DNA, 0.4-12.8 µM protein; 10 min 37 °C then 5 min on ice; 10% native
Conditions in all cases: protein: recombinant; tags: N-terminal His6; label: 5'-FAM on strand 1; blunt
ABH2 Y122A = target: T1, ABH2 Y122A
ABH2 I168A = target: T2, ABH2 I168A
ABH2 D173A = target: T3, ABH2 D173A

Row | Binder | Kd (ABH2 Y122A) [nM] | Kd (ABH2 I168A) [nM] | Kd (ABH2 D173A) [nM]
1 | m3C (dsDNA, N3-methylcytosine at position 12 of strand 1) DNA 1: AGTTCAATGATCTTCAT DNA 2: ATGAAGATCATTGAACT | 2490 ± 60 | 4100 ± 100 | 3090 ± 70
2 | m1A (dsDNA, N1-methyladenine at position 10 of strand 1) DNA 1: AGTTCAATGATCTTCAT DNA 2: ATGAAGATCATTGAACT | 2110 ± 80 | 2700 ± 400 | 2100 ± 90
